PMC10362797, “Phosphorylation of USP20 on Ser334 by IRAK1 promotes IL-1β-evoked signaling in vascular smooth muscle cells and vascular inflammation” (The Journal of Biological Chemistry, 2023)

Biological target: T1, TRAF6 (TNFR-associated factor 6), endogenous (mouse (endogenous in mouse SMCs), UniProt P70196 1-530)
T1 construct: TRAF6, E3 ubiquitin ligase, endogenously expressed in mouse aortic smooth muscle cells; source: endogenous, mouse SMC lysate
T1 sequence (looked up): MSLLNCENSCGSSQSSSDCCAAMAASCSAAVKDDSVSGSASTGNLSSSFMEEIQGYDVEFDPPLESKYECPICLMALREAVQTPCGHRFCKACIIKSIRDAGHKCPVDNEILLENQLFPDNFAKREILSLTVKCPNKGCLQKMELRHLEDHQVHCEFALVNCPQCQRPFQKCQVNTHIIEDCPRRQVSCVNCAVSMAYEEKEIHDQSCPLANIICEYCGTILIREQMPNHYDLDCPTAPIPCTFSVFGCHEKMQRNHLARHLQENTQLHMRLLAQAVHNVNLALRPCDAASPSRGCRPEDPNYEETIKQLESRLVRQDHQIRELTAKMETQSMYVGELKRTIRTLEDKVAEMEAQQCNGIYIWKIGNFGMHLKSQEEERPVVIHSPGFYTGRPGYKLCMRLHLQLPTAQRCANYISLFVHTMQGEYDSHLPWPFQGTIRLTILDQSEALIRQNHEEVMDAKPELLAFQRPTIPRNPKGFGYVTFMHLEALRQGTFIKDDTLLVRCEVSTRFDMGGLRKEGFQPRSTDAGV
Assay: co-IP; endogenous TRAF6 immunoprecipitated with anti-TRAF6(D-10) agarose overnight at 4 °C from lysates of mouse SMCs transduced with HA-USP20, serum starved 1 h and stimulated with IL-1β (1 ng/ml, 20 min); lysis buffer 50 mM Hepes pH 7.5, 2 mM EDTA, 250 mM NaCl, 10% glycerol, 0.5% Nonidet P-40; immunoblot for HA
Settings: partners not purified

B1: HA-tagged USP20-S334A (mouse) (enzyme, UniProt Q8C6M1 1-916, looked up)
chain: MGDARDLCPHLDCIGEVTKEDLLLKSKGTCQSCGVAGPNLWACLQVTCPYVGCGESFADHSSIHAQVKKHNLTVNLTTFRVWCYACEREVFLEQRLAVHLASSSARLSEQDSPPPSHPLKAVPIAVADEGESESEDDDLKPRGLTGMKNLGNSCYMNAALQALSNCPPLTQFFLECGGLVRTDKKPALCKSYQKLISEVWHKKRPSYVVPTSLSHGIKLVNPMFRGYAQQDTQEFLRCLMDQLHEELKEPMVAAVAALTDARDSDSSDTDERRDGDRSPSEDEFLSCDSSSDRGEGDGQGRGGGSSKAEMELLISDEAGRAISEKERMKDRKFAWGQQRTNSEQVDEDADVDTAMASLDEQSREAQPPSPRSTSPCQTPEPDNEAHIRSSSRPCSPVHHHHEGHSKLSSSPPRASPVRMGPSYVLKKAQVPSTGGRRRKEQSYRSVISDVFNGSVLSLVQCLTCDRVSTTVETFQDLSLPIPGKEDLAKLHSAIYQNVPAKPGACGDSYSSQGWLAFIVEYIRRFVVSCTPSWFWGPVVTLEDCLAAFFAADELKGDNMYSCERCKKLRNGVKYCKVLCLPEILCVHLKRFRHEVMYSFKVSSHVSFPLEGLDLRPFLAKECTSQVTTYDLLSVICHHGTAGSGHYIAYCQNVINGQWYEFDDQYVTEVHETVVQNVEAYVLFYRKSSEEAMRERQQVVSLAAMREPSLLRFYVSREWLNKFNTFAEPGPITNHTFLCSHGGIPPNKYHYIDDLVVILPQSVWEHLYSRFGGGPAVNHLYVCSICQVEIEALAKRRRVEIDTFIKLNKAFQAEESPAVIYCISMHWFREWEAFVKGKDSEPPGPIDNSRIAQVKGSGHIQLKQGADCGQISEETWTYLSSLYGGGPEIAIRQSVAQLPDPESLHGEQKIEAETRAL
notes: Mimics unphosphorylated USP20; source: mouse SMCs, transduced with recombinant adenovirus, in protein extract/lysate; not shown: HA, N-terminal, kept
B1 was tested, and the “fold of USP20-WT in TRAF6 immunoprecipitates” value was ~2.2 fold.
